Sequences and labels used below:
T1: Boi1 SH3 (BOI1_YEAST), P38041
T1 chain: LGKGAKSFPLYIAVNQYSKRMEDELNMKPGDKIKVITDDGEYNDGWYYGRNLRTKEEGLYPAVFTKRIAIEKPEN

T2: Boi2 SH3 (BOI2_YEAST), P39969
T2 chain: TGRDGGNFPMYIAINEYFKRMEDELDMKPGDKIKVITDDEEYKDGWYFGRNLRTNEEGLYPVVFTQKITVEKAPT

T3: Rvs167 SH3 (RV167_YEAST), P39743
T3 chain: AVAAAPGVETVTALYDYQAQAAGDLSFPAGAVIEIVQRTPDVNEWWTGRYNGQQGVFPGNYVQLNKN

T4: Yfr024 SH3 (LSB3_YEAST), P43603
T4 chain: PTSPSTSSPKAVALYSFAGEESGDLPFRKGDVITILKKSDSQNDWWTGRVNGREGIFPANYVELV

T5: Yhr016c SH3 (YSC84_YEAST), P32793
T5 chain: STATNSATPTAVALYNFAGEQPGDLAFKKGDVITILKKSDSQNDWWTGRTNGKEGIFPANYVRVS

For one test, the target named is T1, Boi1 SH3 (BOI1_YEAST), P38041. The test is described as follows: SPOT array.
On to ETVPTEPTRYNYQN [YER132C 1359-1372], for which the normalised SPOT signal, Boehringer light units (BLU); mean over the file's lines of this peptide amounted to 112.
Same read-out and setting: in the case of EYHPIKPLRSSSST [YDL180W 234-247] it was 56.4; in that of ENYPSPPYKIIILD [YJR068W 127-140], 160.
Still for that read-out and setting: in the case of EVTPKVPERPSRRK [YIR003W 4-17] it was 5160.
Still for that read-out and setting: in the case of ENFPIVPLKSVAQD [YAL051W 638-651] it was 94; in that of EVTPEEPSKKIRTS [YML071C 500-513], 52.7; in that of EYFPISPEKKEEME [YGR237C 591-604], 120.
Molecule ENVPLYPSRRNIWE [YHR176W 81-94] registered a normalised SPOT signal, Boehringer light units (BLU); mean over the file's lines of this peptide of 764.
Still for that read-out and setting: then ENKPFKPPRRVGSN [YBR073W 41-54], with 339.
For the molecule EVTPEEPSKSIDNK [YML071C 475-488], the normalised SPOT signal, Boehringer light units (BLU); mean over the file's lines of this peptide worked out at 25.1.
The same measure, in the same setting: in the case of EVYPIEPPKVVSLK [YLR306W 88-101] it was 48.7; in that of ERDPNMPKRPTNAY [YDL002C 88-101], 125; in that of ENLPPSPVRAVNPL [YPR174C 153-166], 85.
Still for that read-out and setting: then ENAPANPSKALKVK [YHR108W 549-562], with 21.4; and EVSPVEPKRTENER [YDR507C 687-700], with 80.7.
The molecule ERDPNAPKKPLTVF [YDR174W 100-113] returned a normalised SPOT signal, Boehringer light units (BLU); mean over the file's lines of this peptide of 75.6.
ESLPRTPTKGRSTQ [YPR141C 2-15] yielded a normalised SPOT signal, Boehringer light units (BLU); mean over the file's lines of this peptide of 455.
In turn, EMIPSSPQRKSVSN [YBR098W 51-64] gave a normalised SPOT signal, Boehringer light units (BLU); mean over the file's lines of this peptide of 59.
On the same count and under the same terms, in the case of EVIPSWPRRGKVEE [YNL022C 436-449] it was 51.2.

Another test addresses T2, Boi2 SH3 (BOI2_YEAST), P39969. Kind of test: SPOT array.
For the molecule ETVPTEPTRYNYQN [YER132C 1359-1372], the normalised SPOT signal, Boehringer light units (BLU); mean over the file's lines of this peptide came to 55.5.
On the same count and under the same terms, then EYHPIKPLRSSSST [YDL180W 234-247], with 29.9.
Still for that read-out and setting: then ENYPSPPYKIIILD [YJR068W 127-140], with 34.9.
The molecule EVTPKVPERPSRRK [YIR003W 4-17] returned a normalised SPOT signal, Boehringer light units (BLU); mean over the file's lines of this peptide of 493.
ENFPIVPLKSVAQD [YAL051W 638-651]: the normalised SPOT signal, Boehringer light units (BLU); mean over the file's lines of this peptide worked out at 9.5.
Same read-out and setting: then EVTPEEPSKKIRTS [YML071C 500-513], with 20.1.
Same read-out and setting: in the case of EYFPISPEKKEEME [YGR237C 591-604] it was 15.3; in that of ENVPLYPSRRNIWE [YHR176W 81-94], 19.2; in that of ENKPFKPPRRVGSN [YBR073W 41-54], 3.6.
On the same count and under the same terms, then EVTPEEPSKSIDNK [YML071C 475-488], with 0.
In the case of EVYPIEPPKVVSLK [YLR306W 88-101], the normalised SPOT signal, Boehringer light units (BLU); mean over the file's lines of this peptide turned out to be 26.4.
In the case of ERDPNMPKRPTNAY [YDL002C 88-101], the normalised SPOT signal, Boehringer light units (BLU); mean over the file's lines of this peptide came to 31.7.
On the same count and under the same terms, in the case of ENLPPSPVRAVNPL [YPR174C 153-166] it was 42.8; in that of ENAPANPSKALKVK [YHR108W 549-562], 34.7; in that of EVSPVEPKRTENER [YDR507C 687-700], 41.7.
On the same count and under the same terms, then ERDPNAPKKPLTVF [YDR174W 100-113], with 34.6; and ESLPRTPTKGRSTQ [YPR141C 2-15], with 26.1.
Same read-out and setting: then EMIPSSPQRKSVSN [YBR098W 51-64], with 37.3.
For EVIPSWPRRGKVEE [YNL022C 436-449], the normalised SPOT signal, Boehringer light units (BLU); mean over the file's lines of this peptide turned out to be 26.

The target of another test is T3, Rvs167 SH3 (RV167_YEAST), P39743. Kind of test: SPOT array.
On to ETVPTEPTRYNYQN [YER132C 1359-1372], for which the normalised SPOT signal, Boehringer light units (BLU); mean over the file's lines of this peptide is 26.9.
Regarding EYHPIKPLRSSSST [YDL180W 234-247], the normalised SPOT signal, Boehringer light units (BLU); mean over the file's lines of this peptide is 48.4.
Still for that read-out and setting: in the case of ENYPSPPYKIIILD [YJR068W 127-140] it was 35.7; in that of EVTPKVPERPSRRK [YIR003W 4-17], 2090.
With ENFPIVPLKSVAQD [YAL051W 638-651], the normalised SPOT signal, Boehringer light units (BLU); mean over the file's lines of this peptide stood at 125.
On the same count and under the same terms, in the case of EVTPEEPSKKIRTS [YML071C 500-513] it was 15.5; in that of EYFPISPEKKEEME [YGR237C 591-604], 32.5.
In turn, ENVPLYPSRRNIWE [YHR176W 81-94] registered a normalised SPOT signal, Boehringer light units (BLU); mean over the file's lines of this peptide of 88.9.
For ENKPFKPPRRVGSN [YBR073W 41-54], the normalised SPOT signal, Boehringer light units (BLU); mean over the file's lines of this peptide was 232.
Same read-out and setting: in the case of EVTPEEPSKSIDNK [YML071C 475-488] it was 19.5.
EVYPIEPPKVVSLK [YLR306W 88-101] returned a normalised SPOT signal, Boehringer light units (BLU); mean over the file's lines of this peptide of 9.
On the same count and under the same terms, in the case of ERDPNMPKRPTNAY [YDL002C 88-101] it was 64.8; in that of ENLPPSPVRAVNPL [YPR174C 153-166], 28.7.
The same measure, in the same setting: in the case of ENAPANPSKALKVK [YHR108W 549-562] it was 68.
Still for that read-out and setting: in the case of EVSPVEPKRTENER [YDR507C 687-700] it was 47.2.
In the case of ERDPNAPKKPLTVF [YDR174W 100-113], the normalised SPOT signal, Boehringer light units (BLU); mean over the file's lines of this peptide amounted to 59.7.
On the same count and under the same terms, then ESLPRTPTKGRSTQ [YPR141C 2-15], with 34.8; and EMIPSSPQRKSVSN [YBR098W 51-64], with 220.
For EVIPSWPRRGKVEE [YNL022C 436-449], the normalised SPOT signal, Boehringer light units (BLU); mean over the file's lines of this peptide came to 34.7.

A further test has as its target T4, Yfr024 SH3 (LSB3_YEAST), P43603. The test is described as follows: SPOT array.
In the case of ETVPTEPTRYNYQN [YER132C 1359-1372], the normalised SPOT signal, Boehringer light units (BLU); mean over the file's lines of this peptide turned out to be 24.9.
With EYHPIKPLRSSSST [YDL180W 234-247], the normalised SPOT signal, Boehringer light units (BLU); mean over the file's lines of this peptide stood at 3150.
On the same count and under the same terms, then ENYPSPPYKIIILD [YJR068W 127-140], with 56.9.
EVTPKVPERPSRRK [YIR003W 4-17]: the normalised SPOT signal, Boehringer light units (BLU); mean over the file's lines of this peptide came out at 59100.
The molecule ENFPIVPLKSVAQD [YAL051W 638-651] had a normalised SPOT signal, Boehringer light units (BLU); mean over the file's lines of this peptide of 377.
Still for that read-out and setting: in the case of EVTPEEPSKKIRTS [YML071C 500-513] it was 15.
Molecule EYFPISPEKKEEME [YGR237C 591-604] registered a normalised SPOT signal, Boehringer light units (BLU); mean over the file's lines of this peptide of 0.
Same read-out and setting: then ENVPLYPSRRNIWE [YHR176W 81-94], with 15000; and ENKPFKPPRRVGSN [YBR073W 41-54], with 23100.
EVTPEEPSKSIDNK [YML071C 475-488]: the normalised SPOT signal, Boehringer light units (BLU); mean over the file's lines of this peptide came to 0.
EVYPIEPPKVVSLK [YLR306W 88-101]: the normalised SPOT signal, Boehringer light units (BLU); mean over the file's lines of this peptide is -0.
ERDPNMPKRPTNAY [YDL002C 88-101] showed a normalised SPOT signal, Boehringer light units (BLU); mean over the file's lines of this peptide of 1640.
Same read-out and setting: in the case of ENLPPSPVRAVNPL [YPR174C 153-166] it was 156; in that of ENAPANPSKALKVK [YHR108W 549-562], 34.4.
Same read-out and setting: then EVSPVEPKRTENER [YDR507C 687-700], with 72; and ERDPNAPKKPLTVF [YDR174W 100-113], with 94.1.
ESLPRTPTKGRSTQ [YPR141C 2-15] had a normalised SPOT signal, Boehringer light units (BLU); mean over the file's lines of this peptide of 2200.
Consider EMIPSSPQRKSVSN [YBR098W 51-64], for which the normalised SPOT signal, Boehringer light units (BLU); mean over the file's lines of this peptide is 2140.
EVIPSWPRRGKVEE [YNL022C 436-449] had a normalised SPOT signal, Boehringer light units (BLU); mean over the file's lines of this peptide of 923.

A further test concerns the target T5, Yhr016c SH3 (YSC84_YEAST), P32793. The test is described as follows: SPOT array.
The molecule ETVPTEPTRYNYQN [YER132C 1359-1372] showed a normalised SPOT signal, Boehringer light units (BLU); mean over the file's lines of this peptide of 53.7.
On the same count and under the same terms, then EYHPIKPLRSSSST [YDL180W 234-247], with 762; and ENYPSPPYKIIILD [YJR068W 127-140], with 86.3; and EVTPKVPERPSRRK [YIR003W 4-17], with 18500.
Same read-out and setting: in the case of ENFPIVPLKSVAQD [YAL051W 638-651] it was 100; in that of EVTPEEPSKKIRTS [YML071C 500-513], 124.
In turn, EYFPISPEKKEEME [YGR237C 591-604] came in with a normalised SPOT signal, Boehringer light units (BLU); mean over the file's lines of this peptide of 242.
The same measure, in the same setting: then ENVPLYPSRRNIWE [YHR176W 81-94], with 4510; and ENKPFKPPRRVGSN [YBR073W 41-54], with 8330.
Still for that read-out and setting: then EVTPEEPSKSIDNK [YML071C 475-488], with 105.
The same measure, in the same setting: then EVYPIEPPKVVSLK [YLR306W 88-101], with 85.5; and ERDPNMPKRPTNAY [YDL002C 88-101], with 339; and ENLPPSPVRAVNPL [YPR174C 153-166], with 0.
In turn, ENAPANPSKALKVK [YHR108W 549-562] came in with a normalised SPOT signal, Boehringer light units (BLU); mean over the file's lines of this peptide of 209.
EVSPVEPKRTENER [YDR507C 687-700] gave a normalised SPOT signal, Boehringer light units (BLU); mean over the file's lines of this peptide of 83.5.
For ERDPNAPKKPLTVF [YDR174W 100-113], the normalised SPOT signal, Boehringer light units (BLU); mean over the file's lines of this peptide was 274.
In turn, ESLPRTPTKGRSTQ [YPR141C 2-15] returned a normalised SPOT signal, Boehringer light units (BLU); mean over the file's lines of this peptide of 211.
For EMIPSSPQRKSVSN [YBR098W 51-64], the normalised SPOT signal, Boehringer light units (BLU); mean over the file's lines of this peptide was determined as 323.
The same measure, in the same setting: in the case of EVIPSWPRRGKVEE [YNL022C 436-449] it was 138.

Source of the values: paper PMC314469, “Protein Interaction Networks by Proteome Peptide Scanning” (PLoS Biology, 2004).
